Measured values as given in the nanobody polyreactivity screen of Harvey et al. (2022).

Test: yeast display, Sf9 membrane polyspecificity reagent, FACS + sequencing; frameworks hold sequencing errors
Summary of the method: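 Using colony PCR, genes from sorted yeast display clones were amplified, then sequenced on MiSeq at 2 × 250 and filtered by CDR length. The clones had been stained with 10% biotinylated, detergent-solubilized Sf9 membrane reagent for 1 hour at 4 °C and sorted by FACS into low and high (top ~1%) gates on anti-HA and streptavidin fluorescence. Polyreactivity labels come from the gate of origin.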

| Sequence | polyreactivity (PSR sort gate) |
| --- | --- |
| QVQLQESGGGLVEAGGTLRLSCAASGSYSADEDMGWYRQAQGKEREFVAGISVGGNTNYADSVKGRFTSSRENAKNSLFLQINSLKPEDTAVYYCAVLPDVYDALDYWAQGTQVTVSS | high polyreactivity |
| QVQLVESGGGLVQAGGSLRLSCAASGRTFRRYAMGWYRQAPGKERELVAAISWGAGSTRYADSVKGRFTISRDNAKNTVYLQMNSLKPEDTAVYYCAAENTRAYGMYYWGQGTQVTVSS | high polyreactivity |
| QVQLVESGGGLVPAGGSLRLSCAASGYTFYFYAMGWYRQAPGKERELVAAITGGGTTSYADSVKGRFTISRDNAKNTVYLQMNSLKPEDTADSYCNVLFADKSDYWGQATQVTVSS | low polyreactivity |
| QVQLQDSGGGLVQAVGSQRMSCAASGYIFYFQYMGWYRQAPGKEREFVAAISDGANTNYADSVKGRFTISRDNAKNTEYLQMYCLKPEDTAVYYCAVYADENYYYIYWGQGTQVTVSS | low polyreactivity |
| QVQLVESGGGLVQAGGSLRLSCAASGRIFYRNAMGWYRQAPGKERELVAAIRGGDNTYYADSVKGRFTISRDNAKNTVYLQMNSLKPEDTAVYYCAARSYRLDSYYWGQGTQVTVSS | high polyreactivity |
| QVQLVESGGGLVQASGSLRLSCAASGLTFYLNAMGWYRPEHGKERELVAGISYTGGSTYYADSVKGRFTISRDNAKNTVYLQMNSLKPEDTAVYSCARDNFYYGVWDYGYWGQGTQVTVSS | low polyreactivity |
| QVQLQESGGGLVQAGGSLRLSCAASGSIFKVVDMGLYRQAPGKEREFVATNGEGGNTYSADSVKGRFTISRDNAKNTVYRQMNSLKPEATAVYFYAVVLGTSYRYTYWGQGTQVTVSS | low polyreactivity |
| QVQLEESGGGLVQAGGSLRLSCAASGRTFSPNTMGWYRQAPGKEREFVAAITASGDSTYYADSVKGRFTISRDNAKYSVYLQMNRLKPEDTAVYYCATDSNWYWGFNYWGQGTQVTVSS | low polyreactivity |
| QVQLLDSGGGLVQAGGSLRLSCAASGSTIAYYDMGWYRQAPGKERELVAAISWSGGSTYYADSVKGRFTISRENAKKTVYLQMNSLKPEDTAVYYCNRLLGYFTDSSGSPMGYWGQGTQVTVSS | high polyreactivity |
| QVQLVESGGGLVQAGGSLRLSCAASGRIFGKYVMGWYRQAPGKERELVAAISSGGSTYADSVKGRFTISRDNAKNTFYLQMNCLKPEDTAVYYCNTRPRLYGYRPSQYTYDYWGQGTQVTVSS | high polyreactivity |
| QFQLVESGGGLVQAGGSLRLSCAASGRILSIYAMGWYSQAPGKESEMVAGITGGGRTHSADSVKGRFTISRDNAKNTVYLQMYSLKPEDTAVYSCSSLWRYQYRSKLSYYYWGQGTQVTVSS | high polyreactivity |
| QVQLVESGGGLVQAGGSLRLSCAASGRIFYYYAMGWYRQAPGKERELVAAITWNGTSTYYADSVKGRFTISRDNAKNTVYLQMNSLKPEDTAVYYCAAEGWVGAWWYVLDVRYDYWGQGTQVTVSS | low polyreactivity |
| QVQLVESGGGLVQAGGSLRLSCAASGIIFWAYALGWYRQAPGKERELVAVISRGGSTNYADSVKGPFTISRDNAKNTVYLQMNSLKPEDTAVYYCAARYGWGQGTQVTVSS | high polyreactivity |
| QVQLGESGGGLVQAGGSLRLSCAASGSTFGFYAMGWYRQAPGKERELVAAISGRGGSTYYADSVKGRFTISRDNAKNTVYLQMNSLKPEDTAVYYCAKEFKYWGYPYDYWGQGTQVTVSS | low polyreactivity |
| QVQLVESGGGLVQAGGSLRLSCAASGSIFVVNAMGWYRQAPGKERELVAAIDWSDGGTYYADSVKGRFTISRDNAKNTVYLQMNSLKPEDTAVYYCATVRYVQITRDDYWGQGTQVTVSS | low polyreactivity |
| QVHLVESGGGLVQAGGSLRLSCSASGRIFDNYVMGWYRQAPGKERELVAAISSGGGTYYADSVKGRFTISRDNAKNTVFLQMNSLKPEDTAVYYCAKRRVYDRSFGRYDYWGQGTQVTVSS | low polyreactivity |
| QVQLVESGGGLVQAGGSLRLSCAASGSIFNSYAMGWYRQAPGKERELVAAIRWSGGRTYYADSVKGRFTISRDNAKNTVYLQMNSLKPEDTAVYYCNVVSPGRVNYWGQGTQVTVSS | high polyreactivity |
| QVQLVESGGGLVQAGGSLRLSCAASGRIFSGYAMGWDRQAPGKERELVAAITSRSGSTYYADSVKGRFTISRDNAKNTVYLQMNSLKPEDTAVYYCAKRLYKPGNVFYSVDQSDYWGQGTQVTVSS | low polyreactivity |
| QVQLVESGGGLVQAGGSLRLSCAASGRTFRVYAMGWYRQAPGKERELVAAISGSGGSTYYADSLKGRFTISRDNAKNTVYLQMNSLKPDDTAVYYCAARYFGPGWRDRDYNYWAQGTQVTVSS | high polyreactivity |
| QVQLVESGGGLVQAGGSLRLSCAASGRTFTGYAMGWYRQAPGKERELVAAISQGSGSTYYADSVKGRFTISRDNAKNTVYLQMNSLKPEDTAVYYCAAERAYYQTGHYYWGQGTQVTVSS | high polyreactivity |
| QVQLVESGGGLVQAGGSLRLRCAASGRIFPWYAMGWYRHAPGGEREFVAVISRSGGSTYYADSVKGRFTISRDNAKNTVYLQMNSLKPEDTAVYYCASDGKFEYDYWGQGTQVTVSS | low polyreactivity |
| QVQLVESGGGLVQAGGSLRLSCAPSGRIFTRYARGWYRQAPGKERELVAVITRSGGSTYYADSVKGRFTISRDNAKNTVYLQMNSLKPEDTAVYYCAAKYYGEMYYWGQGTHVTVSS | low polyreactivity |

| Sequence | polyreactivity (PSR sort gate) |
| --- | --- |
| QVQLVESGGGLVQAGGSLRLSCAASGSTFPPYAMGWYRQAPGKERELVADITRRGASTYYADSVKGRFTISRDNAKNTVYLQMNSLKPEDTAVYYCNAGRSRRYRIGRYYYWGQGTQVTVSS | high polyreactivity |
| QVQLVESGGGIVQAGGSLRLSCAASGSIFDSNAMGWYRQAPGKERELVAAITGSGTSTYYADSVKGRFTISRDNAKNTVYLQMNSLKPEDTAVYYCAAAPEYLTDHDYWGQGTQVTVSS | low polyreactivity |
| QVQLEESGGGLVQAGGSLRLSCAASGITFVDYDMGWYRQATGKERELVAAITTGSSTYYADSVKGRFTISRDNAKNTVYLQMNSLKPEDTAVYYCARDLEYDYYQQWSYGYWGQGTQVTVSS | low polyreactivity |
| QVQLVESGGGLVQAGGSLRLSCAASGLIFSCNAMGWYRQAPGKERELVASISYSGGRTYYADSVKGRFTISRDNAKNTVYLQMNSLKPEDTAVYYCAADTNATTDPEMDYWGQGTQVTVSS | low polyreactivity |
| QVQLVESGGGLVQAGGSLRLSCAASGSIFDWYDMGWYRQAPGKEGELVAAISSGDSTYYADSVKGRFTISRDNAKNTVYLQMNSLKPEDTAVYYCAAVTKLSGIRYNYWGQGTQVTVSS | low polyreactivity |
| QVQLVESGGGLVQAGGSLRLSCAASGRIFWVYAMGWYRQAPGKERELVAAISTRGGSTYYADSVKGRFTISRDNAKNRVYLQKNRLKPDDTAVYYCAADYDDKYDYWGQGTQVTVSS | low polyreactivity |
| QVQLHESGGGLVHACGSLRPSCAASGSISDSWTMSWYRQAPGKEREFVAGITWGGTTNYADSVKRRFTISRDNAKNNVFLQMNSLKPEDTAVYYCAAVSYYGVDQYRITVYTYEYWGQGTQVTVSS | low polyreactivity |
| QVQLVESGGGLVQAGGRLRLSCAASGFTFNSYVMGWYRQAPGKERELVAAITRSGDRTYYADSVKGRFTISRDNAKNTVYLQMNSLKPEDTAVYYCAATWSINYYGWYYYWGQGTQVTVSS | high polyreactivity |
| QVQLVESGGGLVQAGGSLRLSCAASGFIFAGYVMGWSRQAPGKERELVAAISSGGRTYYADSVKGRFTISRDNAKNTVYLQMNSLKPEDTAVYYCAAARWQVRATEGNYWGQGTQVTVSS | high polyreactivity |
| QLQLQESSGGLVQAGGSMRMTCAASGTIFHFHIMGWYRPAPGKEREFVAAISYGTSTYYADSVKGRFTISRDNAKNTVYLQMNSQKPEDTAVYYCAVYDYLEVYCWYWGQGTQVTVSS | low polyreactivity |
| QVQLVESGGGLVQAGGSLRLSCAASGSIFYNAMGGYRQAPGKERELVAGISSGTSTYYADSVKGRFTISRDNAKNTVYLLMNSLKPEDTEVYYCATRWSYRYGYWGQGTQVTVSS | high polyreactivity |
| QVQLVESGGGLVQAGGSLRLSCAASGSIFVQYAMGWYRQAPGKERELVAAITRRAGSTYYADSVKGRFTISRDNAKNTVYLQMNSLKPEDTAVYYCAAGYRYRYTRDIWYEYWGQGTQVTVSS | high polyreactivity |
| QVQHVASGGGLVQAGGSLRLSCAASGSTFVYYAMGWYRQAPGKERELFADITKSGGSTFYAESVKGRFTISRDNAKNTVYLQMNSLKPEDTAVFYCGARYKGQYYRQGRHDYWGQGSQVTVSS | high polyreactivity |
| QVQLVESGGGLVQAGGSLRLSCAGSGFIFNVYAMGWYRQAPGKARELVAAISRSGGSTYYADSVKGRFTISRDNAKNTVYLQLNSLKPEDTAVYYCNARTPPSYYDMGYWGQGTQVTVSS | high polyreactivity |
| QVLLVESGGGLVQAGGSLRLSCAASGSIFGAYAMGWYRQAPGKVRELVAAINYGGATTYYADSVKGRYTISRDLAKNTVYLQMNSLKPQDTAVYYCAADNDTDHSSATYGYDYWGQGTQVTVSS | low polyreactivity |
| QVQLVESWGGLVQAGGSLRLSCAASGRTFDRYDMGWYRQAPGKERELVATISSSGGSTYYADSVKGRFTISRDNAKNTVYLQMNSLKPEDTAVYYCAADPSGDYWGQGTQVTVSS | low polyreactivity |
| QVQLVESGGGLVQAGGSLRLICAASGFIFKGYAMGWNRQAPGKERELVAAISSSGTSTYYADSVKGRFTISRDNAKNTVYLQMNSLKPEDTAVYYCAADLASYAYRYDFWGQGTQVTVSS | high polyreactivity |
| QGQLVESGGGLVQAGGSLRLSCAASGSIFPYYAMGWYRQAHGKERELVAVITTSGGRTYYADSVKGRFTISRDNAKNTVYLQMNSLKPADTAVYYCATDVRQGSGWRYYYWGQGTQVTVSS | high polyreactivity |
| QVQLEESRGGLVQAGGSLRLSFAAYGFTYFGYAMGWYRQAPGKERELVAAISTIDGDTYYADSVKGRFTISRDNAKNTFYLLMNSLKPEDNAFYYCAADDYIDGDDYWGQGTQVSVSS | low polyreactivity |
| QVQLVESGGGLVQAGGSLRLSCAASGITFYRYAMGWYRQAPGKEREFVAAINYGGSSTRYADSVKGRFTISRDNAKNTVYLQMNCLKPEDTAVYYCAVEKRYPRRRYDYWGQGTQVTVSS | low polyreactivity |
| QVQLVESGGGLVQAGGSLRLSCAASGSTFRFNTMGWYRHAPGKDRELVAAITSGGSTYYADSVKGLFTISRDNAKNTVYLQMNSLKPEDTAVYYCAATWYIRGQCYYYWGQGTQVTVSS | high polyreactivity |
